Reference: US20250002610A1 (Genmab, published 2025)

T1: human DR4 (Death Receptor 4), cell surface expressed on human tumor cell lines (human, UniProt O00220 24-468)
T1 construct: also called TNFRSF10A; TRAIL-R1
T1 sequence: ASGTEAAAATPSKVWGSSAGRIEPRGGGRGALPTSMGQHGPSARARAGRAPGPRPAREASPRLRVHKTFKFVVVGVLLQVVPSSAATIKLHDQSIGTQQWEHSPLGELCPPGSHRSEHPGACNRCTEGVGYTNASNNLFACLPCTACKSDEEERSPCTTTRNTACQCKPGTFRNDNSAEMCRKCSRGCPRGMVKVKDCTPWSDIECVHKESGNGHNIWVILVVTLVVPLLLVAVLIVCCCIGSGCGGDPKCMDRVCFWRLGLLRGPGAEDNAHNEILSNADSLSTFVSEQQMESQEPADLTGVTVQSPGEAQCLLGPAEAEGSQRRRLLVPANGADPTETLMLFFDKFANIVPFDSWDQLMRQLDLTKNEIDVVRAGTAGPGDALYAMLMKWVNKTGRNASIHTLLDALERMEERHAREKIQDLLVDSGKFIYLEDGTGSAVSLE

T2: human FAPα (Fibroblast activation protein alpha), cell surface expressed (human, UniProt Q12884 1-760)
T2 construct: Endogenous on human lung fibroblasts and CAFs
T2 sequence: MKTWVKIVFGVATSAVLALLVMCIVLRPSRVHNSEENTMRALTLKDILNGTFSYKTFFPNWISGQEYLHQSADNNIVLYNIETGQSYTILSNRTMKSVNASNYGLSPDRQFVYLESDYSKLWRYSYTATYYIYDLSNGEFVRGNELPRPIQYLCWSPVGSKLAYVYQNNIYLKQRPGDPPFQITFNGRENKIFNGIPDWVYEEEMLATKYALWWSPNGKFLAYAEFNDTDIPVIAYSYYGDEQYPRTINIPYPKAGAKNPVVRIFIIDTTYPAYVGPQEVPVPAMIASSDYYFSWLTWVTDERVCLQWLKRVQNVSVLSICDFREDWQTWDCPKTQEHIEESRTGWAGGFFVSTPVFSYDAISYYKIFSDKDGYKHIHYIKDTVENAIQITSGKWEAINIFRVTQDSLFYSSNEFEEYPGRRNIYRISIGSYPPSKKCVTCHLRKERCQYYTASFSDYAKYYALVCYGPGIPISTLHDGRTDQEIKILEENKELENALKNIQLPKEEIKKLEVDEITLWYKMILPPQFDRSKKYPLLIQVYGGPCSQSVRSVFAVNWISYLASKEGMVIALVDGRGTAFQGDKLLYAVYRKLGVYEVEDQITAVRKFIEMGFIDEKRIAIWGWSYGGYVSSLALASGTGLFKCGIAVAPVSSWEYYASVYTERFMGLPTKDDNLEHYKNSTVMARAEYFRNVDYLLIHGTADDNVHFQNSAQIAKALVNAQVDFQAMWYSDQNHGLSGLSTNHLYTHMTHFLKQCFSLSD

B1: BisG1-FAPα-FERL/DR4-FERR (bispecific antibody, human IgG1, kappa, lambda)
heavy 1: EVQLLESGGGLVQPGGSPRLSCEASGFTFSSYALSWVRQAPGKGLEWVSAISGSGGGRYYADSVKGRFTISRDNSKNTLFLQMNSLRAEDTAVYYCAKEGYSSSGTYWDHWGQGTLVTVSSASTKGPSVFPLAPSSKSTSGGTAALGCLVKDYFPEPVTVSWNSGALTSGVHTFPAVLQSSGLYSLSSVVTVPSSSLGTQTYICNVNHKPSNTKVDKRVEPKSCDKTHTCPPCPAPEFERGPSVFLFPPKPKDTLMISRTPEVTCVVVDVSHEDPEVKFNWYVDGVEVHNAKTKPREEQYNSTYRVVSVLTVLHQDWLNGKEYKCKVSNKALPAPIEKTISKAKGQPREPQVYTLPPSREEMTKNQVSLTCLVKGFYPSDIAVEWESNGQPENNYKTTPPVLDSDGSFLLYSKLTVDKSRWQQGNVFSCSVMHEALHNHYTQKSLSLSPG
light 1: AIQMTQSPSSVSASVGDRVTITCRASQGVSSWLAWYQQKPGRAPKLLIYVASTLQSGVPSRFSGSGSGTDFTLTINSLQPEDFATYYCQQANSFPPTFGQGTRLEMKRTVAAPSVFIFPPSDEQLKSGTASVVCLLNNFYPREAKVQWKVDNALQSGNSQESVTEQDSKDSTYSLSSTLTLSKADYEKHKVYACEVTHQGLSSPVTKSFNRGEC
heavy 2: QVQLQESGPGLVKPSGTLSLTCAVSGGSISSYSWWSWIRQPPGKGLEWIGELYHSGSTNYNPSLKSRVTISVDKSKNQFSLKLRSVTAADTAVYYCVRGVATIDYWGQGTLVTVSSASTKGPSVFPLAPSSKSTSGGTAALGCLVKDYFPEPVTVSWNSGALTSGVHTFPAVLQSSGLYSLSSVVTVPSSSLGTQTYICNVNHKPSNTKVDKRVEPKSCDKTHTCPPCPAPEFERGPSVFLFPPKPKDTLMISRTPEVTCVVVDVSHEDPEVKFNWYVDGVEVHNAKTKPREEQYNSTYRVVSVLTVLHQDWLNGKEYKCKVSNKALPAPIEKTISKAKGQPREPQVYTLPPSREEMTKNQVSLTCLVKGFYPSDIAVEWESNGQPENNYKTTPPVLDSDGSFFLYSRLTVDKSRWQQGNVFSCSVMHEALHNHYTQKSLSLSPG
light 2: QSALTQPPSASGSPGQSVTISCTGTSSDVGGYNFVSWYQQDPGKAPKLLIYEVTKRPSGVPDRFSGSKSGNTASLTVSGLQAEDEADYYCSSYAGSNNVMFGGGTKLTVLGQPKAAPSVTLFPPSSEELQANKATLVCLISDFYPGAVTVAWKADSSPVKAGVETTTPSKQSNNKYAASSYLSLTPEQWKSHRSYSCQVTHEGSTVEKTVAPTECS
notes: Human IgG1 bispecific made by controlled Fab-arm exchange of IgG1-FAPα-FERL and IgG1-DR4-FERR; monovalent for FAPα and for DR4; also called GEN1057
B2: BisG1-FAPα-FERL/b12-FERR (bispecific antibody, human IgG1, kappa)
heavy 1: B1 heavy 1
light 1: B1 light 1
heavy 2: QVQLVQSGAEVKKPGASVKVSCQASGYRFSNFVIHWVRQAPGQRFEWMGWINPYNGNKEFSAKFQDRVTFTADTSANTAYMELRSLRSADTAVYYCARVGPYSWDDSPQDNYYMDVWGKGTTVIVSSASTKGPSVFPLAPSSKSTSGGTAALGCLVKDYFPEPVTVSWNSGALTSGVHTFPAVLQSSGLYSLSSVVTVPSSSLGTQTYICNVNHKPSNTKVDKRVEPKSCDKTHTCPPCPAPEFERGPSVFLFPPKPKDTLMISRTPEVTCVVVDVSHEDPEVKFNWYVDGVEVHNAKTKPREEQYNSTYRVVSVLTVLHQDWLNGKEYKCKVSNKALPAPIEKTISKAKGQPREPQVYTLPPSREEMTKNQVSLTCLVKGFYPSDIAVEWESNGQPENNYKTTPPVLDSDGSFFLYSRLTVDKSRWQQGNVFSCSVMHEALHNHYTQKSLSLSPG
light 2: EIVLTQSPGTLSLSPGERATFSCRSSHSIRSRRVAWYQHKPGQAPRLVIHGVSNRASGISDRFSGSGSGTDFTLTITRVEPEDFALYYCQVYGASSYTFGQGTKLERKRTVAAPSVFIFPPSDEQLKSGTASVVCLLNNFYPREAKVQWKVDNALQSGNSQESVTEQDSKDSTYSLSSTLTLSKADYEKHKVYACEVTHQGLSSPVTKSFNRGEC

Columns and labels:
[1] = molecular target: T1, human DR4 (Death Receptor 4), cell …; test: flow cytometry, MDA-MB-231 cells, n = 1
[2] = molecular target: T1, human DR4 (Death Receptor 4), cell …; test: flow cytometry, MDA-MB-231 cells, N = 2
[3] = molecular target: T1, human DR4 (Death Receptor 4), cell …; test: flow cytometry, HCT-116 cells, n = 3
[4] = molecular target: T2, human FAPα (Fibroblast activation …); test: flow cytometry, CAFs, average ± SEM
Procedure: (§1) Binding of bispecific or monoclonal antibodies carrying the anti-FAPα arm derived from IgG1-FAPα-FERL (BisG1-FAPα-FERL/DR4-FERR, BisG1-FAPα-FERL/b12-FERR, and IgG1-FAPα-FERL) to cell surface expressed human FAPα was analyzed by flow cytometry using human lung fibroblasts and CAFs, which endogenously express FAPα. BisG1-b12-FERL/b12-FERR was used as negative control.
(§2) Human lung fibroblasts and CAFs (50,000 cells/well) were seeded in 96-Well round bottom plates (Greiner Bio-one, Cat #650101). Antibody dilutions were prepared using fluorescence-activated cell sorting (FACS) buffer, consisting of phosphate buffer saline (PBS, Lonza, Cat #BE17-517Q)+1% Bovine Serum Albumin (BSA, Roche, Cat #10735086001)+0.02% Sodium Azide (Bio-World, Cat #41920044-3). Plates were centrifuged, supernatant was removed, cells were resuspended in 50 μL of human Fc Block (BD, Cat #564220, diluted 1:100 in FACS buffer) and 50 μL of viability stain TO-PRO-3 Iodide (Thermo Fisher, Cat #T3605, diluted 1: 25,000 in FACS buffer), and incubated for 15 min at 4° C. Plates were washed three times with FACS buffer. […] Antibody binding to viable cells (TO-PRO-3 negative) was analyzed by flow cytometry on a FACSCelesta™ (BD biosciences) and data were processed using FlowJo_v10.8.1 (FlowJo LLC). Geomean fluorescence intensity, gMFI, was determined and visualized using GraphPad Prism.

[5] = molecular target: T1, human DR4 (Death Receptor 4), cell …; test: flow cytometry, PANC-1 cells, average ± SEM
[6] = molecular target: T2, human FAPα (Fibroblast activation …); test: flow cytometry, CAFs, n = 1
Procedure: as §1, §2

[7] = molecular target: human DR4 with death domain deletion on ExpiCHO-S cells (human); test: flow cytometry, ExpiCHO-S cells expressing human DR4, average ± SEM
[8] = molecular target: T2, human FAPα (Fibroblast activation …); test: flow cytometry, human lung fibroblasts, n = 1
Procedure: as §1
as §2, with “buffer. Plates were centrifuged, supernatant was removed, cells were resuspended in 50 μL of antibody dilutions (concentration range 90-0.0005 μg/mL, three-fold dilution steps using FACS buffer) of BisG1-FAPα-FERL/DR4-FERR, BisG1-FAPα-FERL/b12-FERR, BisG1-b12-FERL/b12-FERR (top six concentrations only for CAFs culture) or IgG1-FAPα-FERL (top four concentrations only for CAFs culture) and incubated for 30 min at 4° C. Cells were washed three times with FACS buffer and resuspended in 50 μL of Fluorescein isothiocyanate (FITC)-labeled polyclonal antibody goat anti-mouse IgG1 (Jackson Immuno Research, Cat #109-096-097, diluted 1:100 in FACS buffer).” for “buffer.”

Sequence of human DR4 with death domain deletion on ExpiCHO-S cells (human) (chain, as listed by the source limits assumed, stated change not applied): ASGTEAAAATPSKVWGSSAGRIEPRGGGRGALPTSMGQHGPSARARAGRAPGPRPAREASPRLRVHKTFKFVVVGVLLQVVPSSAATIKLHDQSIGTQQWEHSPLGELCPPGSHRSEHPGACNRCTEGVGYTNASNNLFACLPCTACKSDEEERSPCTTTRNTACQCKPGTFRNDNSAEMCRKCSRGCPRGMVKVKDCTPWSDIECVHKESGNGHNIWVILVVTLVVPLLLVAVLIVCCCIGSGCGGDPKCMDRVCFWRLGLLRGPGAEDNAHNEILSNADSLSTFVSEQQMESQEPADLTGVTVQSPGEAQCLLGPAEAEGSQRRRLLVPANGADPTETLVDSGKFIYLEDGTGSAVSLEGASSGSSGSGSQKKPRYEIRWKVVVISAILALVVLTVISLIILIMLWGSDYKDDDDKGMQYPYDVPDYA

Binder | EC50 [1] | EC50 [2] | EC50 [3] | EC50 [4] | EC50 [5] | EC50 [6] | EC50 [7] | EC50 [8]
B1 | 1.12 µg/mL | 0.72 µg/mL | 0.53 µg/mL | 0.203 µg/mL | 1.7 µg/mL | 0.159 µg/mL | 0.5 µg/mL | 0.046 µg/mL
B2 |  |  |  | 0.21 µg/mL |  | 0.183 µg/mL |  | 0.043 µg/mL
